In US20100215651A1 (GLENMARK PHARMACEUTICALS S A, published 2010):

T1: human CD19 (human, UniProt P15391 20-556)
T1 construct: CD19 as expressed on Raji, NALM-6 and SU-DHL-6 cells; also called CD19 antigen; B-cell surface antigen B4
T1 sequence: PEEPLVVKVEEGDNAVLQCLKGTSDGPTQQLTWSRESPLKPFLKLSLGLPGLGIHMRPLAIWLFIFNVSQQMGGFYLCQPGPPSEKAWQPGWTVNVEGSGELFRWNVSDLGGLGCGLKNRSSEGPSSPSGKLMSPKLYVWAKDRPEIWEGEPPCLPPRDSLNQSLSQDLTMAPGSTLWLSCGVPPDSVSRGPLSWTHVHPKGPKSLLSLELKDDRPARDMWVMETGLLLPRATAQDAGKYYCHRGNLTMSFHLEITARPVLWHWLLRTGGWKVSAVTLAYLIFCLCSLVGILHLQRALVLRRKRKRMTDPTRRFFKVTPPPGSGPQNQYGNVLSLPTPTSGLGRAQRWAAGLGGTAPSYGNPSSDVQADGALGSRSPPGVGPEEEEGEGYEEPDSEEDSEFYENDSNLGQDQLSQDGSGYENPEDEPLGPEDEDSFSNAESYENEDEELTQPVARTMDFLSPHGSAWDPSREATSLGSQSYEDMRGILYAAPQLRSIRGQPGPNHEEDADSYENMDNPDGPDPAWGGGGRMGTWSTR


What was measured:
human CD19 [1] = biological target: T1, human CD19; assay: competition with 0.2 nM Eu3+-labelled chimeric FMC63 on Raji cells
Description: To that aim, 100 μl volumes of Raji cells in RPMI-1640 medium (Chemie Brunschwig AG, PAA, Basel, Switzerland) supplemented with 10% fetal bovine serum (FBS, Chemie Brunschwig AG, PAA, Basel, Switzerland), 2 mM ultraglutamine 1 (Lonza, Verviers, Belgium) and 1% penicillin/streptomycin (Chemie Brunschwig AG, PAA, Basel, Switzerland), prepared at concentration of 1×10⁶ cells/ml were seeded in a U-bottomed 96-well plate. […] The antibody dilutions were cooled down to 4° C. before 100 μl was taken and added on the Raji cells. […] Cells were incubated with the antibodies for 15 minutes on ice. After reaching equilibrium, the cells were centrifuged at 1300 RPM for 2 minutes and supernatant was discarded. Cell pellets were washed twice with 200 μl of cold binding buffer PBS-2.5% FBS-0.05% NaN₃, and resuspended into 100 μl of Delfia solution. Cell bound Eu³+-FMC63 was measured with time resolved fluorescence as described above. The amount of Eu³+-FMC63 (fmole) per well was determined and plotted versus the total amount of unlabelled antibody.

human CD19 [2] = biological target: T1, human CD19; assay: cell-based or functional assay
human CD19 [3] = biological target: T1, human CD19; assay: flow cytometry on SU-DHL-6 cells, PE-labelled anti-human secondary antibody, MFI against antibody concentration
Description: (§1) Binding of the CD19 humanized monoclonal antibodies by flow cytometry to Raji tumor cells (human Burkitt lymphoma, DSMZ ACC319), NALM-6 (human B cell precursor leukemia, DSMZ ACC128) and SU-DHL-6 (human B cell lymphoma, DSMZ ACC572) (all cell lines from DSMZ Braunschweig, Deutschland) was assessed. Cells were incubated with serial dilutions of each humanized monoclonal antibody. An irrelevant human IgG1 was used as a negative control. The cells were washed and detected by a phycoerythrin-labeled (PE) anti-human secondary antibody (eBioscience, CA, USA) and analyzed by flow cytometry. […] From MFI versus antibody concentration curves, Mid-Point Fluorescence (MPF) value for each anti-CD19 humanized antibody was calculated using the software GraphPad Prism 5 (CA, USA).

human CD19 [4] = biological target: T1, human CD19; assay: flow cytometry, Raji cells, MPF vs chimeric FMC63
human CD19 [5] = biological target: T1, human CD19; assay: flow cytometry, Raji cells, MPF vs chimeric FMC63; remark: listed apart in the source
Description: as §1

human CD19 [6] = biological target: T1, human CD19; assay: flow cytometry, Raji cells, MPF vs chimeric FMC63; remark: listed apart in the source
Description: as §1

human CD19 [7] = biological target: T1, human CD19; assay: flow cytometry, NALM-6 cells, MPF vs chimeric FMC63
Description: as §1

human CD19 [8] = biological target: T1, human CD19; assay: Scatchard analysis, Eu3+-labelled antibody on Raji cells
Description: (§2) Raji cells as described in Example 2 were grown in RPMI-1640 medium (Chemie Brunschwig AG, PAA, Basel, Switzerland) supplemented with 10% fetal bovine serum (FBS, Chemie Brunschwig AG, PAA, Basel, Switzerland), 2 mM ultraglutamine 1 (Lonza, Verviers, Belgium) and 1% penicillin/streptomycin (Chemie Brunschwig AG, PAA, Basel, Switzerland). The cells were washed with the same culture medium and adjusted to a final concentration of 1×10⁶ cells/ml. A 100 μl volume of Raji cells was seeded in U-bottomed 96-well plate. […] Cells were incubated with Eu³⁺-antibody for 15 minutes on ice to reach equilibrium. The amount of free Eu³⁺-labelled antibodies were measured by transferring aliquots of cell-free supernatant (volumes were empirically adjusted depending on antibody concentration; cells were spun at 1300 RPM for 2 min) into a fresh plate containing 100 μl of Delfia solution (PerkinElmer, MA, USA; an enhancer of Eu³⁺ fluorescence). To ensure complete removal of the supernatant, cells were spin down once more at 1300 RPM for 2 minutes. After the second centrifugation, the supernatant was discarded, and cells were washed twice with 200 μl of cold binding buffer (PBS-2.5% FBS-0.05% NaN₃). Cell pellets were resuspended into 100 μl of Delfia solution.

human CD19 [9] = biological target: T1, human CD19; assay: Scatchard analysis (Bound/Free against Bound) of europium-labelled antibody on Raji cells, time resolved fluorescence
Description: as §2

| Binder | Ki (human CD19 [1]) | ADCC: specific lysis of Raji cells by PBMC (LDH release), against IgG1 control (human CD19 [2]) | EC50 (read off the curve) (human CD19 [3]) | relative MPF (% of chimeric FMC63) (human CD19 [4]) | relative MPF (% of chimeric FMC63) (human CD19 [5]) | relative MPF (% of chimeric FMC63) (human CD19 [6]) | relative MPF (% of chimeric FMC63) (human CD19 [7]) | Kd (human CD19 [8]) | Kd (human CD19 [9]) |
| --- | --- | --- | --- | --- | --- | --- | --- | --- | --- |
| VH16-R94K/VL43-V3Q-T7S-P44I-N92A (antibody, human IgG1, kappa, V domains shown, human IgG1/kappa) VH: QVQLVQSGGGVVQPGRSLRLSCAASGVSLPDYGVSWVRQAPGKGLEWVAVIWGSETTYYNSALKSRFTISRDNSKNTLYLQMNSLRAEDTAVYYCAKHYYYGGSYAMDYWGQGTLVTVSS VL: DIQMTQSPSSLSASVGDRVTITCRASQDISKYLNWYQQKPGKAIKLLIYHTSRLHSGVPSRFSGSGSGTDFTLTISSLQPEDFATYYCQQGATLPYTFGPGTKVDIKR | 3.9 nM | ≥ 3 fold | ~0.09 µg/mL | 83.3% |  |  |  |  |  |
| VH16-R94K/VL43 (antibody, human IgG1, Full-length human IgG1/kappa) heavy: not shown VL: DIVMTQTPSSLSASVGDRVTITCRASQDISKYLNWYQQKPGKAPKLLIYHTSRLHSGVPSRFSGSGSGTDFTLTISSLQPEDFATYYCQQGNTLPYTFGPGTKVDIKRTVAA | 7.6 nM |  | ~0.2 µg/mL | 27.1% | 26.8% | 26.8% | 14.4% | 47 nM |  |
| VH16 R94K VL43 P44I (antibody, human IgG1, V domains shown, Full-length human IgG1/kappa; substitutions in Kabat numbering) VH: QVQLVQSGGGVVQPGRSLRLSCAASGVSLPDYGVSWVRQAPGKGLEWVAVIWGSETTYYNSALKSRFTISRDNSKNTLYLQMNSLRAEDTAVYYCAKHYYYGGSYAMDYWGQGTLVTVSS VL: DIVMTQTPSSLSASVGDRVTITCRASQDISKYLNWYQQKPGKAIKLLIYHTSRLHSGVPSRFSGSGSGTDFTLTISSLQPEDFATYYCQQGNTLPYTFGPGTKVDIKR |  |  | ~0.09 µg/mL |  |  |  |  |  | 19 nM |
